Experiment: yeast display, Sf9 membrane polyspecificity reagent, FACS + sequencing; frameworks hold sequencing errors
How it was run: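 After 36–48 hours of galactose induction, yeast (Saccharomyces cerevisiae BJ5465) displaying a synthetic nanobody library were stained at 4 °C for 1 hour with 10% biotinylated, detergent-solubilized Sf9 membrane reagent. Streptavidin microbeads enriched the stained cells before FACS sorting into low and high (top ~1%) gates on anti-HA and streptavidin fluorescence. Each clone's polyreactivity label reflects its gate of origin.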

| Sequence | polyreactivity (PSR sort gate) |
| --- | --- |
| QVQLVESGGGLVQAGGSLRLSCAASGSIISDYALGWYRPAPGKERELVAGISSGGGTTYADSVKGRFTISRDNAKNTVYLQMNSLKPEDTAVYYCNKQDQPVGRSGYPYGYDYWGQGTQVTVSS | low polyreactivity |
| QVQLVESGGGLVQAGGSLRLSCAASGSIISNYVKGWYRQAPGKERELVAAITRRGGRTYYADSVKGRFTISRDNAKNTVYLQMNSLKPEDTAVYYCAAQTISYSYPIIRYDYWGQGTQVTVSS | low polyreactivity |
| QVQLVESGGGLVQAGGSLRLSCAASGSIISRNAMGWYRQAPGKEREFVAAITRSGGSTSYADSVKGRFTISRDNAKNTVYLQMNSLKPEDTAVYYCSASFARSATAYLFDYWGQGTQVTVSS | high polyreactivity |
| QVQLVESGGGLVQAGGSLRLSCAASGSIISYYAMGWYRQAPGKERELVATITSGGITYYADSVKGRFTISRDNAKNTVYLQMNSLKPEDTAVYYCNARYPHGYSSYYRFGYWGQGTQVTVSS | high polyreactivity |
| QVQLVESGGGLVQAGGSLRLSCAASGSIITYYAMGWYRQAPGKERELVAAISSGGSTYYADSVKGRFTISRDNAKSTVYLQMNRLKPEDSAVYYCNADLLDYWSFILFDYWGQGSQVTVSS | high polyreactivity |
| QVQLVESGGGLVQAGGSLRLSCAASGSIIVGYAMGWYRQAPGKEREMVALISSDCDTYYADSVKGRFTISRDNAKNTVYLQMNSLKAEDTAVYYCNADLYGGGDKSVISGLNGEYEYWGQGTQVTVSS | low polyreactivity |
| QVQLVESGGGLVQAGGSLRLSCAASGSIIYKYAMGWYRQAPGKERELVAAINSGGRTYYADSVKGRFTISRDNAKNTVYLQMNSLKPEDTAVYYCNAGTYYPGRYDYWGQGTQVTVSS | low polyreactivity |
| QVQLVESGGGLVQAGGSLRLSCAASGSIIYPYAMGWYRQAPGKERELVASINWRTGSTYYADSVKGRFTISRDNAKNTVYLQMNSLKPEDTAVYYCAARLDYYTGFDYWGQGTQVTVSS | low polyreactivity |
| QVQLVESGGGLVQAGGSLRLSCAASGSIIYRNVMGWYRQAPGKERELVAAISSNGGRTYYADSVKGRFTISRDNAKNTVYLQMNSLKPEDTAVYYCAADTYPGTYYWGQGTQVTVSS | high polyreactivity |
| QVQLVESGGGLVQAGGSLRLSCAASGSIIYRYAMGWYRQARGKERELVAAISTTGGRTYYADSVKGRFTISRDNAKNTVYLQMNSLKPEDTAVYYCNTYGSGTHSTGYDYWGQGTQVTVSS | low polyreactivity |
| QVQLVESGGGLVQAGGSLRLSCAASGSIIYTNAMGWYRQAPGKERELVAAITGTTTTNYADSVKGRFTISRDNAKNTVYLQKTSLKPEDTAVYYCNADYDRSRVYYSVELYDYWGQGTQVTVSS | low polyreactivity |
| QVQLVESGGGLVQAGGSLRLSCAASGSILAGNTMVSYRQAPGKERELVATISKRGGSTYYADSVKGRFTISRDNAKNTVYLQMNSLKPEDTAVYYCAAALRAKHYYWGQGTQVTVSS | high polyreactivity |
| QVQLVESGGGLVQAGGSLRLSCAASGSILAGYAMGWYRQAPGKERELVAAISDSGGNTYYADSVKGRFTISRDTAKNTVYLQMNSLKPEDTAVYYCAADLGYGPLRELEYWGQGTQVNVSS | low polyreactivity |
| QVQLVESGGGLVQAGGSLRLSCAASGSILAHYAMGWYRQAPGKERELVAGISSGGSTNYADSVKGRFTISRDNAKNTVYLQMNSLKPEDTAVYYCNADQDFLFIGYLFDYWGQGTQVTVSS | low polyreactivity |
| QVQLVESGGGLVQAGGSLRLSCAASGSILARNAMGWYRQAPGKERELVAAISNSGSTNYADSVKGRFTISRDNAKNTVYLQMNSLKPEDPAGYYCAKDADHGWFEYDYWGQGTQVTVSS | low polyreactivity |
| QVQLVESGGGLVQAGGSLRLSCAASGSILDHYAMGWYRQAPGKEREFVAAISIRGGSTYYADSVKGRFTISRDNAKNTVYLQMNSLKPEDTAVYYCNALSNYVYRRNDYWGQGTQVTVSS | low polyreactivity |
| QVQLVESGGGLVQAGGSLRLSCAASGSILDPYVMGWYRQSPGKEWELVAAITQSGGSTYYADSVKGRFTISRDNAKNTVYLQMNSLKPEDTAVYYCATTRPIRRTSARYNYWGQGTQVTVSS | low polyreactivity |

— the nanobody polyreactivity screen of Harvey et al. (2022)
